Like-named read-outs stand apart in the source and are kept apart here.

Kd data for one molecule are collected here from US20230365674 (published 2023).

Common to all, as to assay: SPR
Assay [1] deals with T1, human NPR1-ANP complex (human).
T1 chain 1: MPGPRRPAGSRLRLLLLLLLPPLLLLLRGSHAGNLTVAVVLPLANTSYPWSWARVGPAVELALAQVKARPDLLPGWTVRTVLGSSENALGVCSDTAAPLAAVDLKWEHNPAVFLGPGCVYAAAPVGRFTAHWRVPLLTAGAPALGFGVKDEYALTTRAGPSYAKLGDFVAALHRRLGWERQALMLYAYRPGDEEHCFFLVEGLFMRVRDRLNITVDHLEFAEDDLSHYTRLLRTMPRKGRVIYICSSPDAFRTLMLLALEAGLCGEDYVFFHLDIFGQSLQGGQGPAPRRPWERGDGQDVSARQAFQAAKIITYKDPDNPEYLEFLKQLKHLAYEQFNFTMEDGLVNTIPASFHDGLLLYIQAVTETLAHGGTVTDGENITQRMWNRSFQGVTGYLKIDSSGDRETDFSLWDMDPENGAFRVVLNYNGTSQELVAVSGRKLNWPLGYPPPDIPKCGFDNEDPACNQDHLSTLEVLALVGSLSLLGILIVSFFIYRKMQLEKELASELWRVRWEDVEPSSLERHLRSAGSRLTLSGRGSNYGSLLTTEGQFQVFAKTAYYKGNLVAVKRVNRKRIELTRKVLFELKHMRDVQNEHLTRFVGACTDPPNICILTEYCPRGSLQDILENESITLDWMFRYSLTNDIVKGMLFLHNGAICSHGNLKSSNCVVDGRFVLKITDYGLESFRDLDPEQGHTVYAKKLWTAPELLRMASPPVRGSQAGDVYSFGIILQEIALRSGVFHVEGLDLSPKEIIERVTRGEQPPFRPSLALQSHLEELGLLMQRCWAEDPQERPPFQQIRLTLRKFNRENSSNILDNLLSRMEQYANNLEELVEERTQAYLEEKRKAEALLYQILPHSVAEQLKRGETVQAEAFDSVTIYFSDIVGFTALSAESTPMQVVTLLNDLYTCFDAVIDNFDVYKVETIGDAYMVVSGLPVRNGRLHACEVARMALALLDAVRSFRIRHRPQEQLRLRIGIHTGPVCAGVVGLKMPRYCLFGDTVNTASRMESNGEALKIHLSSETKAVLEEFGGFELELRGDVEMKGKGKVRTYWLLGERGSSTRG
T1 chain 2: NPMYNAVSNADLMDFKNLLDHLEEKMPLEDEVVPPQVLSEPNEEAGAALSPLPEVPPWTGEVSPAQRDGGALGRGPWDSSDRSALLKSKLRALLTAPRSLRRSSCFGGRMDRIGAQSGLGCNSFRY

The target in assay [2] is T2, human NPR1 (human).
T2 chain: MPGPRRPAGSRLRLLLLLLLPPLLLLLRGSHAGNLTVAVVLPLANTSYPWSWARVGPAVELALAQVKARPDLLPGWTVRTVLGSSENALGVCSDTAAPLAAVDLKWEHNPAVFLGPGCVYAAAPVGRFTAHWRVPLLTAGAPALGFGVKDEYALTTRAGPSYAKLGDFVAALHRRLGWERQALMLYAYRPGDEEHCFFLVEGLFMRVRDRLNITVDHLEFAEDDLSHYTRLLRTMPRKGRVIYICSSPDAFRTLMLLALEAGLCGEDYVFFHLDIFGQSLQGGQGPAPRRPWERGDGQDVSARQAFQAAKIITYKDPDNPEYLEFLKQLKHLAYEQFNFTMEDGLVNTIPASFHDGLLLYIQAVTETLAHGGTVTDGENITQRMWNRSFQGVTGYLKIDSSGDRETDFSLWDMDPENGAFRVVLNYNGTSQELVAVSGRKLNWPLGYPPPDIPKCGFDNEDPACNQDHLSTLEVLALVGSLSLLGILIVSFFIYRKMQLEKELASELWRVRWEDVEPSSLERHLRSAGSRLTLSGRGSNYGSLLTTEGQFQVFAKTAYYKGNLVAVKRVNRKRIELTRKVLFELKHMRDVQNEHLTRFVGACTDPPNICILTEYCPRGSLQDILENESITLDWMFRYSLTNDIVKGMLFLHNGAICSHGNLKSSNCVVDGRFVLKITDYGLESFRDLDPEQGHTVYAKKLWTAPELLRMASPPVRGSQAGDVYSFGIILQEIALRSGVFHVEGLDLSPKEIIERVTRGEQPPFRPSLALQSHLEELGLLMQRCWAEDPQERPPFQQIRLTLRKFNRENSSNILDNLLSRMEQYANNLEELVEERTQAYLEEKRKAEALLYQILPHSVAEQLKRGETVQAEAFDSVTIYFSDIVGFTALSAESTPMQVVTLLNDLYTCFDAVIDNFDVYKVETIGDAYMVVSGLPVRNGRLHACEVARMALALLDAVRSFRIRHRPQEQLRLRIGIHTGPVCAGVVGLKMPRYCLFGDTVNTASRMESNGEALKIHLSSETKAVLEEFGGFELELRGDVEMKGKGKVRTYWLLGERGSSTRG

The target of assay [3] is T1, human NPR1-ANP complex.
Assay [4] concerns the target T2, human NPR1.

B1: WW06 FabCys (antibody, V domains shown)
VH: QVQLVQSGAEVKKPGESLKISCKGSGYSFTSYWIAWVRQMPGKGLEWMGRIDPDNSYTRYSPSFQGQVTISADKSISTAYLQWSSLKASDTAMYYCARWLSPGYALGEQPAGMDHWGQGTLVTVSS
VL: DIVLTQPPSVSGAPGQRVTISCTGSSSNIGAGYAVHWYQQLPGTAPKLLIYSNNKRPSGVPDRFSGSKSGTSASLAITGLQAEDEADYYCQSYDLQKSSRVFGGGTKLTVL
In the case of B1, the dissociation constant Kd in the assay with human NPR1-ANP complex [1] was 12 nM; in the assay with human NPR1 [2], 5.3 nM; with human NPR1-ANP complex [3], 12 nM; with human NPR1 [4], 5.3 nM.

As usually defined, the Kd is the equilibrium constant for the complex coming apart. Read a low Kd as tighter binding.
